What was measured:
[1] = substrate: O=C(O)C1=C[C@@H](O)[C@@H](O)[C@H](O)C1; assay: cells, lysate or membranes; conditions: co-substrate p-coumaroyl-CoA, pH 7.0, 30 °C, crude extract
[2] = substrate: CC(C)(COP(=O)(O)OP(=O)(O)OC[C@H]1O[C@@H](n2cnc3c(N)ncnc32)[C@H](O)[C@@H]1OP(=O)(O)O)[C@@H](O)C(=O)NCCC(=O)NCCSC(=O)/C=C/c1ccc(O)c(O)c1; assay: HPLC product assay, Michaelis-Menten fit; type: biochemical, Anthoceros agrestis; conditions: co-substrate shikimic acid, pH 7.0, 30 °C, crude extract, pH 7.0
[3] = substrate: Nc1c(O)cccc1C(=O)O; assay: HPLC product assay, Michaelis-Menten fit; type: biochemical, Anthoceros agrestis; conditions: co-substrate p-coumaroyl-CoA, pH 9.0, 30 °C, crude extract, amide formed, pH 9.0
[4] = substrate: CC(C)(COP(=O)(O)OP(=O)(O)OC[C@H]1O[C@@H](n2cnc3c(N)ncnc32)[C@H](O)[C@@H]1OP(=O)(O)O)[C@@H](O)C(=O)NCCC(=O)NCCSC(=O)/C=C/c1ccc(O)cc1; assay: HPLC product assay, Michaelis-Menten fit; type: biochemical, Anthoceros agrestis; conditions: co-substrate shikimic acid, pH 7.0, 30 °C, crude extract, pH 7.0
[5] = substrate: O=C(O)c1cccc(O)c1O; assay: HPLC product assay, Michaelis-Menten fit; type: biochemical, Anthoceros agrestis; conditions: co-substrate p-coumaroyl-CoA, 30 °C, crude extract, ester formed
[6] = substrate: O=C(/C=C/c1ccc(O)cc1)Nc1c(O)cccc1C(=O)O; assay: HPLC product assay, Michaelis-Menten fit; type: biochemical, Anthoceros agrestis; conditions: co-substrate NADPH, with Coleus blumei CPR, pH 7.0, 30 °C, crude extract
[7] = substrate: O=C(/C=C/c1ccc(O)cc1)Nc1ccccc1C(=O)O; assay: HPLC product assay, Michaelis-Menten fit; type: biochemical, Anthoceros agrestis; conditions: co-substrate NADPH, with Coleus blumei CPR, pH 7.0, 30 °C, crude extract
[8] = substrate: O=C(/C=C/c1ccc(O)cc1)NCCc1ccc(O)cc1; assay: HPLC product assay, Michaelis-Menten fit; type: biochemical, Anthoceros agrestis; conditions: co-substrate NADPH, with Coleus blumei CPR, pH 7.0, 30 °C, crude extract

B1: AaHCT6 (Anthoceros agrestis) (protein)
chain: MKVSIKKETMVPPAEETPQVALWASNVDLIIPQIHTSSVYFYRPSGSPDFFSGDVLRDALAKALVPFYPMAGRLARDQDGRIQINCNAAGVLLVEAEADVSIDDLGGFAPHPVLQQLVPTVVYTKDITAFPLLVLQVTRFKCGGASLGVGMEHHIADGTSGIHFINTWSDVARGEGVKVLPFVDRTLLRARSPPTPQFEHVEYQTPFTLQPRFRPEEGSEKVETVVESFTFSREQLGKLKAMVADPGANLAYSSYVALSAHIWRCATRARGLSGDQPSKLFVATDGRARLRPPLPRGYFGNVIFTCTPVAEAEELVAKPLIRTAARIQEAVLKMGDEYLRSALDYLELLPDMSVCIRGAAHFGNPNLCITSWSGLPVYDCDFGWGRAIHMGPCQIGFEGLCFVLGSATKDGSLGLALRLRADHMADFRKLVNDI
- Km [1]: 24.6 ± 10.4 µM
- Km [2]: 19.2 ± 16.2 µM
- Km [3]: 153.1 ± 33.8 µM
- Km [4]: 14.4 ± 1.4 µM
- Km [5]: 1025.9 ± 59.7 µM

B2: AaCYP98 (CYP98A147; coAaCYP98 + CbCPR) (Anthoceros agrestis) (protein)
chain: MAELVVRAVLALIAVAVAAGFLFYRARWSRYKLPPGPKPRLFVGNLLDVTAVRFKCFEQWAKVYGPVMSVWMGATLNVVVSSAEGAKEVLKDKDQSLAARARSRAAAKFSRDGQDLIWADYGPHYVKVRKVCNVELFTPKRLEALRPIRQDEVSAMVHKIHRDAPKGPVNPKKYLSAMAFNNITRLAFGKRFVDDEGKIDSQGVEFKEVIGQGMKLGASLKISEHIPSIRWMFPLQNEEFAKHGARRDTLTRTIMKEHAALRETLGPQSHFVDALLGLQKQYDLSETTIIGLLWDMVTAGMDTVAITVEWALAELIRNPEVQRKAQEELDAVVGDETVLTEAHFSKLPYLTALTKESLRLHPPTPLMLPHKCTEDVKIQGYDIPKGTVVHCNIYVIARDPAVWKEPLAFRPERFLEQDVDIKGHDFRLLPFGAGRRVCPGAQLGLNMVQLMIGRLLHQFSWSPPEGVRAEDISLEERSGIVTYMAKSLEAVATPRLPQALYARNV
notes: with NADPH--cytochrome P450 reductase (Coleus blumei)
- Km [6]: 9.3 ± 0.7 µM
- Km [7]: 6.4 ± 0.8 µM
- Km [8]: 36.3 ± 3.6 µM
